15 substances from IntAct's records for PubMed 29892012 can be followed below.

Among the targets are cep76_human CEP76 (UniProt Q8TAP6); pdli7_human PDLIM7 (UniProt Q9NR12); fxl18_human FBXL18 (UniProt Q96ME1); leg9b_human LGALS9B (UniProt Q3B8N2); erep1_human ENTREP1 (UniProt Q15884); hnrl1_human HNRNPUL1 (UniProt Q9BUJ2); aagab_human AAGAB (UniProt Q6PD74); zn446_human ZNF446 (UniProt Q9NWS9); mdfi_human MDFI (UniProt Q99750); kr103_human KRTAP10-3 (UniProt P60369); kr105_human KRTAP10-5 (UniProt P60370); kr101_human KRTAP10-1 (UniProt P60331); zbt24_human ZBTB24 (UniProt O43167); aakb2_human PRKAB2 (UniProt O43741); efs_human EFS (UniProt O43281); stat3_human STAT3 (UniProt P40763); creb3_human CREB3 (UniProt O43889); ctsr1_human CATSPER1 (UniProt Q8NEC5); gors2_human GORASP2 (UniProt Q9H8Y8); dpyl3_human DPYSL3 (UniProt Q14195); ntaq1_human NTAQ1 (UniProt Q96HA8); rbm7_human RBM7 (UniProt Q9Y580); ytdc1_human YTHDC1 (UniProt Q96MU7); U2AF1 (UniProt Q01081); cirbp_human CIRBP (UniProt Q14011); rbm42_human RBM42 (UniProt Q9BTD8); qki_human QKI (UniProt Q96PU8); prr3_human PRR3 (UniProt P79522); hnrll_human HNRNPLL (UniProt Q8WVV9); tyk2_human TYK2 (UniProt P29597); abi2_human ABI2 (UniProt Q9NYB9); pex39_human PEX39 (UniProt Q5I0X4); grap2_human GRAP2 (UniProt O75791); ZNF385C (UniProt Q66K41); tri23_human TRIM23 (UniProt P36406); ikzf3_human IKZF3 (UniProt Q9UKT9); neca2_human NECAB2 (UniProt Q7Z6G3); taso2_human TASOR2 (UniProt Q5VWN6); dpyl2_human DPYSL2 (UniProt Q16555).

Experiment [1] has as its target kr108_human KRTAP10-8 (UniProt P60410).
Experiment [2] deals with inca1_human INCA1 (UniProt Q0VD86).
Sequence of inca1_human INCA1 (Q0VD86 whole entry): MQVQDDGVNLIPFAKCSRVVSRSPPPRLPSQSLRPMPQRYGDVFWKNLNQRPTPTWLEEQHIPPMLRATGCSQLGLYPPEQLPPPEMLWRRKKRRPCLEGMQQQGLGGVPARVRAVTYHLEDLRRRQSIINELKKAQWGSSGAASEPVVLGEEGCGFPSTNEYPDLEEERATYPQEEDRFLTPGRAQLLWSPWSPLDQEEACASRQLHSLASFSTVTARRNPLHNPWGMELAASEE
For experiment [3], the target named is itf2_human TCF4 (UniProt P15884).
Sequence of itf2_human TCF4 (P15884 whole entry): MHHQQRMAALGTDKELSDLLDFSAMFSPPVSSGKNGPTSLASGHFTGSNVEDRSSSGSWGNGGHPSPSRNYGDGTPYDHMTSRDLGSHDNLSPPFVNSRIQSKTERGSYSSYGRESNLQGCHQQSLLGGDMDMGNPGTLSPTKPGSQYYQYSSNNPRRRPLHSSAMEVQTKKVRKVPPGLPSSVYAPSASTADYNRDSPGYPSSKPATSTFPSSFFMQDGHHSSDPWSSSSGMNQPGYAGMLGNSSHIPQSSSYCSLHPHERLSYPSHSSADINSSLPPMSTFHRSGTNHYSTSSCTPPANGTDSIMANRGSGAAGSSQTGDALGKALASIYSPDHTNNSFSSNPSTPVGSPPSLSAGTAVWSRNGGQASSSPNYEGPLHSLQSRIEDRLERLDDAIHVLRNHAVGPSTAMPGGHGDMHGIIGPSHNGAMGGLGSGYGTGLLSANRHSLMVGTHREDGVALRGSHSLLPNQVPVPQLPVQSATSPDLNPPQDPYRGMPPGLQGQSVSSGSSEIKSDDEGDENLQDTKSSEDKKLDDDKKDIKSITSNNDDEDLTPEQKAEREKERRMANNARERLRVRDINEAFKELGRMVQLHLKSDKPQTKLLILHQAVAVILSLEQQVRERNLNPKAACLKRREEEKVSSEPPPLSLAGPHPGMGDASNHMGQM
Experiment [4] deals with kr108_human KRTAP10-8 (UniProt P60410). The source holds these as a separate data set.
Sequence of kr108_human KRTAP10-8 (P60410 whole entry): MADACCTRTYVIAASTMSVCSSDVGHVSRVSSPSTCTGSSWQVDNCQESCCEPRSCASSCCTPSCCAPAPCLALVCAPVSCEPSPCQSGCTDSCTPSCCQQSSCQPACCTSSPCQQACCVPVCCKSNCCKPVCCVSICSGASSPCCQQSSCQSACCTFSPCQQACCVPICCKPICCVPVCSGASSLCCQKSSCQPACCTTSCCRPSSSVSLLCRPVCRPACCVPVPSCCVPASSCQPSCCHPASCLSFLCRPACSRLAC
A further experiment concerns the target T1, dpyl5_human DPYSL5 (UniProt Q9BPU6).
T1 sequence: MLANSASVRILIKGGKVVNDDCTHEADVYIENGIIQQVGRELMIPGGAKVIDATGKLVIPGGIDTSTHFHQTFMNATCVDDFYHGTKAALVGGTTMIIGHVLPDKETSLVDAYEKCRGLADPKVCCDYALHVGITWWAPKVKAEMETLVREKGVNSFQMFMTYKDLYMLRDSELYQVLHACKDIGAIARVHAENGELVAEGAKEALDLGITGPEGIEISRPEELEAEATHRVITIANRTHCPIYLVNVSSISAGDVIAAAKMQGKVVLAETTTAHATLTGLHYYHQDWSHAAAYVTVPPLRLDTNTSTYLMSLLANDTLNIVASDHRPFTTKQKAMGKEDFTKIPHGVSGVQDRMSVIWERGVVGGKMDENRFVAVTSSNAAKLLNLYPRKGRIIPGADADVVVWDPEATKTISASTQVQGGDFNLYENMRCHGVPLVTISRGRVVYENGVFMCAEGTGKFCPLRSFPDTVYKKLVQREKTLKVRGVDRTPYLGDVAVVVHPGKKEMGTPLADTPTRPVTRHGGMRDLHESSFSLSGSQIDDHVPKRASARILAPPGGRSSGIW

The target of a further experiment is T2, dest_human DSTN (UniProt P60981).
T2 sequence: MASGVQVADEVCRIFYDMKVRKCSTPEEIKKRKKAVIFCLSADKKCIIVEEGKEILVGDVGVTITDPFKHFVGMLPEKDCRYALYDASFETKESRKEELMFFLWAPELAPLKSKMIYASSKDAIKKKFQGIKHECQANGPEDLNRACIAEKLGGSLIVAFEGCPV

The target in experiment [5] is itf2_human TCF4 (UniProt P15884). This is another data set of the same source.
Experiment [6] addresses inca1_human INCA1 (UniProt Q0VD86). This is another data set of the same source.

Sequence of Serine/threonine-protein kinase Nek6 (Homo sapiens), Q9HC98 R195C (Q9HC98 whole entry R195C): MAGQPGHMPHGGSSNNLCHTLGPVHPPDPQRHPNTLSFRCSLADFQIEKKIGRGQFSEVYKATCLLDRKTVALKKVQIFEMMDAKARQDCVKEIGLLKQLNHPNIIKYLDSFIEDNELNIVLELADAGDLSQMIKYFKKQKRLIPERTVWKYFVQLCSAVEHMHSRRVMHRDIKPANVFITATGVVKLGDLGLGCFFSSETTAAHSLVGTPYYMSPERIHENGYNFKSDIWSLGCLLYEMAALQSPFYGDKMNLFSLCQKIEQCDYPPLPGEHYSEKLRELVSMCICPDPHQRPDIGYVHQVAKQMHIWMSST
Sequence of Zinc finger protein 559 (Homo sapiens), Q9BR84 K62I (Q9BR84 whole entry K62I): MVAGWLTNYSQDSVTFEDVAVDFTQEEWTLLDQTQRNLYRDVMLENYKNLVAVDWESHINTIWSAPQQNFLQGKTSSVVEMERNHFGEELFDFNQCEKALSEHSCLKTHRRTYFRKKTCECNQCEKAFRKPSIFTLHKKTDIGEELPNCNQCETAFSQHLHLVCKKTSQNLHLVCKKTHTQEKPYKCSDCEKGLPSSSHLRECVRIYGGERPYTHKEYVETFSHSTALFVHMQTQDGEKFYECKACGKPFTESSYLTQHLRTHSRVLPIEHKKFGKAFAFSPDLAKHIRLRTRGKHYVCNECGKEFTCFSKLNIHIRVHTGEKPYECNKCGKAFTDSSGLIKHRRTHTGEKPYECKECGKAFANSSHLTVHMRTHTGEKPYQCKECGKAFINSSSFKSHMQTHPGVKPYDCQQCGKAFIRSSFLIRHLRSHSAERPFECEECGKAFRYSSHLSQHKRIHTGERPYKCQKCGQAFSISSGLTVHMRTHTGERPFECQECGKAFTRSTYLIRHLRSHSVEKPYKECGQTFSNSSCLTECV
Sequence of Tyrosine-protein kinase Blk (Homo sapiens), P51451 I338T (P51451 whole entry I338T): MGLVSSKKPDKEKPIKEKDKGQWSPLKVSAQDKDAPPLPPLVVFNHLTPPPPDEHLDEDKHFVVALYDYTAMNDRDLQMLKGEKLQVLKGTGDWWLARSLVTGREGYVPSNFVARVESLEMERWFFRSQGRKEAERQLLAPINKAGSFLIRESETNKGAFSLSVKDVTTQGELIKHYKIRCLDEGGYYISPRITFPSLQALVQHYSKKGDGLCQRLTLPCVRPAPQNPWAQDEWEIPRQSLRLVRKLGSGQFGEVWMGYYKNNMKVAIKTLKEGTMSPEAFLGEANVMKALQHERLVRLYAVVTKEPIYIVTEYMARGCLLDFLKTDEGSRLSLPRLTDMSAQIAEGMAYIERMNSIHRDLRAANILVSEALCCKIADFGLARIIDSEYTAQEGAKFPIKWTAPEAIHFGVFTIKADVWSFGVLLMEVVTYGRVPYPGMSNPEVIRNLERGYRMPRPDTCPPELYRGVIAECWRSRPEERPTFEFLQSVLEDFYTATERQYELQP
Sequence of Apolipoprotein A-II (Homo sapiens), P02652 Q71R (P02652 whole entry Q71R): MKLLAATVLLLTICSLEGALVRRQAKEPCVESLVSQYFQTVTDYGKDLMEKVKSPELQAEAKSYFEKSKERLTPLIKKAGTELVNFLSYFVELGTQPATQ
Sequence of neca2_human NECAB2 (Q7Z6G3 whole entry): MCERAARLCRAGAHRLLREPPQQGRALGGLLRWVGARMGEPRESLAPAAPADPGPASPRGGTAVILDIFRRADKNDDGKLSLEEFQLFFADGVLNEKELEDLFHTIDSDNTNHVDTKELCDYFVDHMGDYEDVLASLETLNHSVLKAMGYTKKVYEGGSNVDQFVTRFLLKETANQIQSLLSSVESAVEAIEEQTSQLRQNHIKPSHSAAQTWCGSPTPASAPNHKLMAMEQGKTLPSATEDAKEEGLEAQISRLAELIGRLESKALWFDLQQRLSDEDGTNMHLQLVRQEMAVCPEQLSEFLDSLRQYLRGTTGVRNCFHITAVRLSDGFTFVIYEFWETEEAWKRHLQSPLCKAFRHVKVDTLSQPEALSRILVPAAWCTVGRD
Sequence of Cyclin-J-like protein (Homo sapiens), Q8IV13 W188R (Q8IV13 whole entry W188R): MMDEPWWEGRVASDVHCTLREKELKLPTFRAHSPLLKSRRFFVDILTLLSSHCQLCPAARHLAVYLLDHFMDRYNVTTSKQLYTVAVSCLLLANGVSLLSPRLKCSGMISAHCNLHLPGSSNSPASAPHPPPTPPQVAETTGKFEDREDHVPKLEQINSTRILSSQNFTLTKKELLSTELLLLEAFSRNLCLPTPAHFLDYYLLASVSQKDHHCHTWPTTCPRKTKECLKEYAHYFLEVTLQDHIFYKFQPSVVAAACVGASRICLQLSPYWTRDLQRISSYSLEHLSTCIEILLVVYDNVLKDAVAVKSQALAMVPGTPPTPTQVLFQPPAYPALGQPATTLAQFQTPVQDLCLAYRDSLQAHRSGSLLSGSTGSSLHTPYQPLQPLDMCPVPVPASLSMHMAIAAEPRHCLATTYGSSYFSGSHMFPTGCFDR
Sequence of pdli7_human PDLIM7 (Q9NR12 whole entry): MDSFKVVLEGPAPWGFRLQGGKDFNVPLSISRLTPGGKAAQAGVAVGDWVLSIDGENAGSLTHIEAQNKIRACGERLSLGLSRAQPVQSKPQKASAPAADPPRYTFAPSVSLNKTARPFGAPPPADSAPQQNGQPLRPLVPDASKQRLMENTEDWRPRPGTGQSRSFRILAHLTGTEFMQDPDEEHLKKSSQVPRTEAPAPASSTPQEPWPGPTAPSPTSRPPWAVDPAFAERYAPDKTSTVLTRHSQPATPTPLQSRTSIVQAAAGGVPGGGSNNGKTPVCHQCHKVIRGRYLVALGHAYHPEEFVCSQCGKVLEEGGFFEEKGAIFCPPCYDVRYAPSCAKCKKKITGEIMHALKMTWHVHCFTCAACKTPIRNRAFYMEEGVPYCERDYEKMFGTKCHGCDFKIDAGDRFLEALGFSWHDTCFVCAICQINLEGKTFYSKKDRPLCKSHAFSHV
Sequence of prr3_human PRR3 (P79522 whole entry): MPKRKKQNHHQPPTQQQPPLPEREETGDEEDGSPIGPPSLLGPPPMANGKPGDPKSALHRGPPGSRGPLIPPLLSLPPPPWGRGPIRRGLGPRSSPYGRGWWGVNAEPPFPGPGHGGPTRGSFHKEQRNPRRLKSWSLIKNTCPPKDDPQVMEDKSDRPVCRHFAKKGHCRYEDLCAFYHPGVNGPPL
Sequence of Zinc finger and SCAN domain-containing protein 30 (Homo sapiens), Q86W11 G186S (Q86W11 whole entry G186S, the tested form may be a part): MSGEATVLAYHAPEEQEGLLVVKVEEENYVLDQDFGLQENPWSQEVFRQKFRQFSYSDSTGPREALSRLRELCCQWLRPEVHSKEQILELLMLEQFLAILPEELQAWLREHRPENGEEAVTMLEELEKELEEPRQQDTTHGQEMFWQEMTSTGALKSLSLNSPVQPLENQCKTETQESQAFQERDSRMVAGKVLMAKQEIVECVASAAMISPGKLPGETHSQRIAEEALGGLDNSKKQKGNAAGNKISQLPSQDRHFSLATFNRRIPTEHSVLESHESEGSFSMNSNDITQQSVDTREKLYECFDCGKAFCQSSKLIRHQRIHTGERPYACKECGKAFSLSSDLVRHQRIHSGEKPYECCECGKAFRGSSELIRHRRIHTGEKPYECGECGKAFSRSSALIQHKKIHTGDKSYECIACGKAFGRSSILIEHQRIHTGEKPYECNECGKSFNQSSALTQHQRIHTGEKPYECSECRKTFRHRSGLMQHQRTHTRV
Sequence of mdfi_human MDFI (Q99750 whole entry): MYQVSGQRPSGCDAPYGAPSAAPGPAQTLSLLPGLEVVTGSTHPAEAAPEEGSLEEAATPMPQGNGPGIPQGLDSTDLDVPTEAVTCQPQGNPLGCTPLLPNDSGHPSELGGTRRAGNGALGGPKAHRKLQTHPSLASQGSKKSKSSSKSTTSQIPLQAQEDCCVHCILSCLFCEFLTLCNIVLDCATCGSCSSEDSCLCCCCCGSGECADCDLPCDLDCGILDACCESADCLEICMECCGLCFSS

With “Solute carrier family 23 member 1 (Homo sapiens), Q9UHI7 L461M”, the “effect of a mutation on the interaction” value with kr108_human KRTAP10-8 [1] was “with no effect”.

For the substance “Calcium-binding protein 5 (Homo sapiens), Q9NP86 T59M”, the “effect of a mutation on the interaction” value with cep76_human CEP76, with inca1_human INCA1 [2] and with itf2_human TCF4 [3] was “with no effect” in each case.

As to “NEDD4-like E3 ubiquitin-protein ligase WWP2 (Homo sapiens), O00308 R178W”, the “effect of a mutation on the interaction” value in the experiment with pdli7_human PDLIM7, in the experiment with fxl18_human FBXL18, with leg9b_human LGALS9B, in the experiment with erep1_human ENTREP1 and in the experiment with hnrl1_human HNRNPUL1 was “with no effect” each time.

Turning to “AP-2 complex subunit sigma (Homo sapiens), P53680 G64D”, in the experiment with aagab_human AAGAB, the “effect of a mutation on the interaction” value is “with no effect”.

As to “Zinc finger and SCAN domain-containing protein 30 (Homo sapiens), Q86W11 G186S”, the “effect of a mutation on the interaction” value in the experiment with zn446_human ZNF446 is recorded as “with no effect”.

Consider “Zinc finger protein 559 (Homo sapiens), Q9BR84 K62I”, for which the “effect of a mutation on the interaction” value with mdfi_human MDFI, with kr103_human KRTAP10-3, in the experiment with kr105_human KRTAP10-5 and in the experiment with kr101_human KRTAP10-1 was “with no effect” throughout.

In the case of “Krueppel-like factor 15 (Homo sapiens), Q9UIH9 G206R”, the “effect of a mutation on the interaction” value in the experiment with zbt24_human ZBTB24 and with aakb2_human PRKAB2 was “with no effect” each time.

Turning to “Cyclin-J-like protein (Homo sapiens), Q8IV13 W188R”, the “effect of a mutation on the interaction” value with kr108_human KRTAP10-8 [4] is listed as “with no effect”.

With “Tyrosine-protein kinase Blk (Homo sapiens), P51451 I338T”, the “effect of a mutation on the interaction” value is reported as “with no effect” in the experiment with efs_human EFS and “disrupting interaction strength” with stat3_human STAT3.

With “Apolipoprotein A-II (Homo sapiens), P02652 Q71R”, the “effect of a mutation on the interaction” value with creb3_human CREB3 and with ctsr1_human CATSPER1 was “with no effect” throughout.

On to “Dihydropyrimidinase-related protein 2 (Homo sapiens) (from UniProt Q16555) R496C”, for which the “effect of a mutation on the interaction” value is given as “disrupting interaction strength” with gors2_human GORASP2, “with no effect” in the experiment with dpyl3_human DPYSL3 and “with no effect” in the experiment with dpyl5_human DPYSL5.

Regarding “Actin, cytoplasmic 1 (Homo sapiens) (from UniProt P60709) R372C”, the “effect of a mutation on the interaction” value in the experiment with ntaq1_human NTAQ1 and with dest_human DSTN was “with no effect” throughout.

With “Heterogeneous nuclear ribonucleoprotein K (Homo sapiens), P61978 R377H”, the “effect of a mutation on the interaction” value with rbm7_human RBM7, with ytdc1_human YTHDC1, in the experiment with U2AF1, with cirbp_human CIRBP, in the experiment with rbm42_human RBM42 and in the experiment with qki_human QKI was “with no effect” each time. In addition, the “effect of a mutation on the interaction” value with prr3_human PRR3, with hnrll_human HNRNPLL, in the experiment with tyk2_human TYK2, with abi2_human ABI2, with pex39_human PEX39 and with grap2_human GRAP2 was “with no effect” in each case. Further, the “effect of a mutation on the interaction” value with ZNF385C was “with no effect”.

As to “Serine/threonine-protein kinase Nek6 (Homo sapiens), Q9HC98 R195C”, the “effect of a mutation on the interaction” value is listed as “disrupting interaction strength” with tri23_human TRIM23; “disrupting interaction strength” with ikzf3_human IKZF3; “disrupting interaction strength” in the experiment with neca2_human NECAB2; “with no effect” with itf2_human TCF4 [5]; “disrupting interaction strength” with taso2_human TASOR2; “with no effect” in the experiment with inca1_human INCA1 [6].

As to “Dihydropyrimidinase-related protein 3 (Homo sapiens), Q14195 V25I”, in the experiment with dpyl2_human DPYSL2, the “effect of a mutation on the interaction” value was “with no effect”.
